Test results from patent publication US20090208936, “IDENTIFICATION OF MOLECULAR INTERACTIONS AND THERAPEUTIC USES THEREOF” (Univeristy of Florida Research Foundations Inc., published 2009).

How the values were obtained:
alpha-thrombin [1] = target: T1, alpha-thrombin (Homo sapiens, UniProt P00734;P00734 P00734:328-363,P00734:364-622); test: FP; anisotropy increased more than 30% at 1:1; 20 mM Tris-HCl pH 7.6, 50 mM NaCl, 5% glycerol
alpha-thrombin [2] = target: T1, alpha-thrombin; test: FP; anisotropy bait complex; slowly displaced by AT3
alpha-thrombin [3] = target: T1, alpha-thrombin; test: FRET quenching slightly larger than FQ-15Ap; Exosite II; not displaced by HirF or AHT
[4] = target: T2, sulfated hirudin fragment 54-65 (HirF) (UniProt P01050 P01050:54-65, not fully specified); test: FRET control without thrombin, no fluorescence change; settings: tags: Sigma-Aldrich; peptide with sulfated Tyr; label: 5'-6-FAM, 3'-Dabcyl; G4
T2 chain: GDFEEIPEEYLQ

antithrombin III (AT3) = antithrombin III (AT3) (Homo sapiens, UniProt P01008 P01008:33-464); test: as above; settings: tags: Haematologic Technologies Inc; label: 5'-6-FAM, 3'-Dabcyl; G4
antithrombin III (AT3), sequence (P01008 33-464, one chain of several): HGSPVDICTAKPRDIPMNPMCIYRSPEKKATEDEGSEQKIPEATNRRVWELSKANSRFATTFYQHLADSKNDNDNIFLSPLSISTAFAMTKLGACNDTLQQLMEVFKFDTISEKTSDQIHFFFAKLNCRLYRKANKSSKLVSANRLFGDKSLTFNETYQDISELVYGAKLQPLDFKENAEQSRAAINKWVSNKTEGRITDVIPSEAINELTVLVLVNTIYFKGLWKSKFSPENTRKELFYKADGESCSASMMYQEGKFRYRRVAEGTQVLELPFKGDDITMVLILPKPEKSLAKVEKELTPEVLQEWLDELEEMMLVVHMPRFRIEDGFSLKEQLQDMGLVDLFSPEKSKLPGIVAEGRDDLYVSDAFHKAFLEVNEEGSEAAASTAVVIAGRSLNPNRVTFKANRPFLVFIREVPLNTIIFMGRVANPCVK

B1: T-15Ap (ssDNA)
DNA: GGTTGGTGTGGTTGG
Question: Does B1 bind (alpha-thrombin [1])?
Answer: Result: binds

B2: T-27Ap (ssDNA)
DNA: ACCCGTGGTAGGGTAGGATGGGGTGGT
Question: Does B2 bind (alpha-thrombin [2])?
Answer: Result: binds

B3: FQ-27Ap (ssDNA)
DNA: ACCCGTGGTAGGGTAGGATGGGGTGGT
Question: Does B3 bind (alpha-thrombin [3])?
Answer: Result: binds

B4: FQ-15Ap (ssDNA)
DNA: GGTTGGTGTGGTTGG
Question: Does B4 bind [4]?
Answer: Result: no binding

Question: Does B4 bind (antithrombin III (AT3))?
Answer: Result: no binding
